Results from patent US20220259593A1, “CONTROL OF MAMMALIAN GENE DOSAGE USING CRISPR” (The Regents of the University of California, priority 2019, published 2022).
Numbering of substitutions follows the chain as printed.

System: K562 CRISPRi cells
Assay: Constant region variant library pooled growth screen, K562
Assay type: cell-based, human
Conditions: sgRNA constant region variants, un-modified constant region cr995
In short: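 Pooled library transduced into K562 CRISPRi cells in duplicate, puromycin-selected, grown at >2000× coverage and sampled after 4 to 8 days. Phenotypes per targeting sequence:constant region pair were normalized to the unmodified-scaffold pairing to give relative activity.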

[1] = activity relative to the original
[2] = relative to the original, CRISPRi

B1: cr772 (nucleic acid)
guide: GTTTAAGAGCTAAGCTGGAAACAGCATAGCAAGTTTAAATAAGGCTAGTCCGTTATCAACTCGAAAGAGTGGCACCGAGTCGGTGCT
modifications: listed as DNA, chemistry not fully specified
Molecule B1 has a Mean relative activity [1] of 1.099.

B2: cr385 (nucleic acid)
guide: B1 guide with C62T, G67A, A74C, C75A, G77C, C81G, G83T, T84G
modifications: listed as DNA, chemistry not fully specified
Molecule B2 has a Mean relative activity [2] of 0.4186.

B3: cr736 (nucleic acid)
guide: B1 guide with T34A, C62T, G67A, T87A
modifications: listed as DNA, chemistry not fully specified
For B3, the Mean relative activity [2] was 0.4208.

B4: cr794 (nucleic acid)
guide: B1 guide with C62T, G67A, G72C, C76G, G82C, C86G
modifications: listed as DNA, chemistry not fully specified
B4 was tested, and the Mean relative activity [2] was 0.411.

B5: cr296 (nucleic acid)
guide: B1 guide with C62T, G67A, C73T, C76G, G77C, C81G, G82C, G85A
modifications: listed as DNA, chemistry not fully specified
B5 showed a Mean relative activity [2] of 0.3911.

B6: cr856 (nucleic acid)
guide: B1 guide with C45A, G48T, C60A, C62T, G67A, G69T, A74T, T84A
modifications: listed as DNA, chemistry not fully specified
In the case of B6, the Mean relative activity [2] is reported as 0.3826.

B7: cr432 (nucleic acid)
guide: B1 guide with T34C, C60G, C62T, G67A, G69C
modifications: listed as DNA, chemistry not fully specified
B7 gave a Mean relative activity [2] of 0.3923.

B8: cr523 (nucleic acid)
guide: B1 guide with T34C, C62T, G67A, G72T, C86A
modifications: listed as DNA, chemistry not fully specified
B8 showed a Mean relative activity [2] of 0.3746.

B9: cr527 (nucleic acid)
guide: B1 guide with T35G, C62T, G67A
modifications: listed as DNA, chemistry not fully specified
For B9, the Mean relative activity [2] was 0.3802.

B10: cr200 (nucleic acid)
guide: B1 guide with G33A, C62T, G67A, T87C
modifications: listed as DNA, chemistry not fully specified
B10 gave a Mean relative activity [2] of 0.3799.

B11: cr687 (nucleic acid)
guide: B1 guide with C62T, G67A, C76T
modifications: listed as DNA, chemistry not fully specified
B11 showed a Mean relative activity [1] of 1.042.

B12: cr804 (nucleic acid)
guide: B1 guide with T34C, C62T, G67A, G72A, C86T
modifications: listed as DNA, chemistry not fully specified
For B12, the Mean relative activity [2] was 0.4025.

B13: cr895 (nucleic acid)
guide: B1 guide with G33T, C62T, A64T, G67A
modifications: listed as DNA, chemistry not fully specified
With B13 the Mean relative activity [2] was 0.3709.

B14: cr343 (nucleic acid)
guide: B1 guide with A59T, C60G, T61A, C62A, G67A, A68T, T70A
modifications: listed as DNA, chemistry not fully specified
B14 showed a Mean relative activity [2] of 0.3733.

B15: cr545 (nucleic acid)
guide: B1 guide with G29A, T54C, C57A, C62T, G67A
modifications: listed as DNA, chemistry not fully specified
In the case of B15, the Mean relative activity [2] is reported as 0.3936.

B16: cr088 (nucleic acid)
guide: B1 guide with G1A, A6G, C62T, G67A
modifications: listed as DNA, chemistry not fully specified
Work on B16 yielded a Mean relative activity [2] of 0.3745.

B17: cr728 (nucleic acid)
guide: B1 guide with A58G, C62T, A65C, G67A
modifications: listed as DNA, chemistry not fully specified
Work on B17 yielded a Mean relative activity [2] of 0.4155.

B18: cr775 (nucleic acid)
guide: B1 guide with A31G, G33T, C62T, G67A
modifications: listed as DNA, chemistry not fully specified
B18 showed a Mean relative activity [2] of 0.4052.

B19: cr404 (nucleic acid)
guide: B1 guide with A58C, C62T, A65T, G67A
modifications: listed as DNA, chemistry not fully specified
For B19, the Mean relative activity [2] was 0.3784.

B20: cr459 (nucleic acid)
guide: B1 guide with A31G, A58T, C62T, G67A
modifications: listed as DNA, chemistry not fully specified
Work on B20 yielded a Mean relative activity [2] of 0.3837.

B21: cr813 (nucleic acid)
guide: B1 guide with A58T, C62T, G67A
modifications: listed as DNA, chemistry not fully specified
Work on B21 yielded a Mean relative activity [2] of 0.3803.

B22: cr569 (nucleic acid)
guide: B1 guide with A28G, A47C, C57G, C62T, G67A
modifications: listed as DNA, chemistry not fully specified
Work on B22 yielded a Mean relative activity [2] of 0.3992.

B23: cr755 (nucleic acid)
guide: B1 guide with T34C, C62T, G67A, A74T, T84A
modifications: listed as DNA, chemistry not fully specified
Work on B23 yielded a Mean relative activity [2] of 0.3814.

B24: cr356 (nucleic acid)
guide: B1 guide with A59C, C62T, G67A, T70G, G72A, C86T
modifications: listed as DNA, chemistry not fully specified
Work on B24 yielded a Mean relative activity [1] of 1.042.

B25: cr201 (nucleic acid)
guide: B1 guide with G43A, C51T, C62T, G67A
modifications: listed as DNA, chemistry not fully specified
For B25, the Mean relative activity [2] was 0.3731.

B26: cr799 (nucleic acid)
guide: B1 guide with C51T, C62T, G67A
modifications: listed as DNA, chemistry not fully specified
In the case of B26, the Mean relative activity [2] is reported as 0.4031.

B27: cr126 (nucleic acid)
guide: B1 guide with G33A, A47C, C62T, G63T, G67A
modifications: listed as DNA, chemistry not fully specified
B27 gave a Mean relative activity [2] of 0.4034.

B28: cr473 (nucleic acid)
guide: B1 guide with T53A, C57A, C62T, A64C, G67A
modifications: listed as DNA, chemistry not fully specified
In the case of B28, the Mean relative activity [2] is reported as 0.3892.

B29: cr249 (nucleic acid)
guide: B1 guide with T54G, C57T, C62T, G67A, T80A
modifications: listed as DNA, chemistry not fully specified
With B29 the Mean relative activity [2] was 0.3886.

B30: cr966 (nucleic acid)
guide: B1 guide with C60G, C62T, G67A, G69C, C75T, C76G, G82C, G83A
modifications: listed as DNA, chemistry not fully specified
With B30 the Mean relative activity [2] was 0.3699.
